This note sets out measurements from publication PMC12440826, “Shigella flexneri evades LPS ubiquitylation through IpaH1.4-mediated degradation of RNF213” (Nature Structural & Molecular Biology, 2025).

This assay deals with T1, 2×Strep–RNF213 (WT human RNF213) (human, UniProt Q63HN8 1-5207).
T1 construct: RNF213, human E3 ubiquitin ligase; plasmid pOP806_pACEBac1 2×Strep–RNF213; the N terminus (residues 1–398) is not resolved in the maps; source: Sf9, purified (StrepTrap HP)
As to the kind of experiment: cryo-EM structure; RNF213 (around 2 μM) mixed with a fivefold molar excess of IpaH1.4/2.5 (10 μM), incubated on ice for 30 min, vitrified on all-gold grids. To be noted: both partners purified.

T1 sequence (Q63HN8 whole entry, the tested form may be a part): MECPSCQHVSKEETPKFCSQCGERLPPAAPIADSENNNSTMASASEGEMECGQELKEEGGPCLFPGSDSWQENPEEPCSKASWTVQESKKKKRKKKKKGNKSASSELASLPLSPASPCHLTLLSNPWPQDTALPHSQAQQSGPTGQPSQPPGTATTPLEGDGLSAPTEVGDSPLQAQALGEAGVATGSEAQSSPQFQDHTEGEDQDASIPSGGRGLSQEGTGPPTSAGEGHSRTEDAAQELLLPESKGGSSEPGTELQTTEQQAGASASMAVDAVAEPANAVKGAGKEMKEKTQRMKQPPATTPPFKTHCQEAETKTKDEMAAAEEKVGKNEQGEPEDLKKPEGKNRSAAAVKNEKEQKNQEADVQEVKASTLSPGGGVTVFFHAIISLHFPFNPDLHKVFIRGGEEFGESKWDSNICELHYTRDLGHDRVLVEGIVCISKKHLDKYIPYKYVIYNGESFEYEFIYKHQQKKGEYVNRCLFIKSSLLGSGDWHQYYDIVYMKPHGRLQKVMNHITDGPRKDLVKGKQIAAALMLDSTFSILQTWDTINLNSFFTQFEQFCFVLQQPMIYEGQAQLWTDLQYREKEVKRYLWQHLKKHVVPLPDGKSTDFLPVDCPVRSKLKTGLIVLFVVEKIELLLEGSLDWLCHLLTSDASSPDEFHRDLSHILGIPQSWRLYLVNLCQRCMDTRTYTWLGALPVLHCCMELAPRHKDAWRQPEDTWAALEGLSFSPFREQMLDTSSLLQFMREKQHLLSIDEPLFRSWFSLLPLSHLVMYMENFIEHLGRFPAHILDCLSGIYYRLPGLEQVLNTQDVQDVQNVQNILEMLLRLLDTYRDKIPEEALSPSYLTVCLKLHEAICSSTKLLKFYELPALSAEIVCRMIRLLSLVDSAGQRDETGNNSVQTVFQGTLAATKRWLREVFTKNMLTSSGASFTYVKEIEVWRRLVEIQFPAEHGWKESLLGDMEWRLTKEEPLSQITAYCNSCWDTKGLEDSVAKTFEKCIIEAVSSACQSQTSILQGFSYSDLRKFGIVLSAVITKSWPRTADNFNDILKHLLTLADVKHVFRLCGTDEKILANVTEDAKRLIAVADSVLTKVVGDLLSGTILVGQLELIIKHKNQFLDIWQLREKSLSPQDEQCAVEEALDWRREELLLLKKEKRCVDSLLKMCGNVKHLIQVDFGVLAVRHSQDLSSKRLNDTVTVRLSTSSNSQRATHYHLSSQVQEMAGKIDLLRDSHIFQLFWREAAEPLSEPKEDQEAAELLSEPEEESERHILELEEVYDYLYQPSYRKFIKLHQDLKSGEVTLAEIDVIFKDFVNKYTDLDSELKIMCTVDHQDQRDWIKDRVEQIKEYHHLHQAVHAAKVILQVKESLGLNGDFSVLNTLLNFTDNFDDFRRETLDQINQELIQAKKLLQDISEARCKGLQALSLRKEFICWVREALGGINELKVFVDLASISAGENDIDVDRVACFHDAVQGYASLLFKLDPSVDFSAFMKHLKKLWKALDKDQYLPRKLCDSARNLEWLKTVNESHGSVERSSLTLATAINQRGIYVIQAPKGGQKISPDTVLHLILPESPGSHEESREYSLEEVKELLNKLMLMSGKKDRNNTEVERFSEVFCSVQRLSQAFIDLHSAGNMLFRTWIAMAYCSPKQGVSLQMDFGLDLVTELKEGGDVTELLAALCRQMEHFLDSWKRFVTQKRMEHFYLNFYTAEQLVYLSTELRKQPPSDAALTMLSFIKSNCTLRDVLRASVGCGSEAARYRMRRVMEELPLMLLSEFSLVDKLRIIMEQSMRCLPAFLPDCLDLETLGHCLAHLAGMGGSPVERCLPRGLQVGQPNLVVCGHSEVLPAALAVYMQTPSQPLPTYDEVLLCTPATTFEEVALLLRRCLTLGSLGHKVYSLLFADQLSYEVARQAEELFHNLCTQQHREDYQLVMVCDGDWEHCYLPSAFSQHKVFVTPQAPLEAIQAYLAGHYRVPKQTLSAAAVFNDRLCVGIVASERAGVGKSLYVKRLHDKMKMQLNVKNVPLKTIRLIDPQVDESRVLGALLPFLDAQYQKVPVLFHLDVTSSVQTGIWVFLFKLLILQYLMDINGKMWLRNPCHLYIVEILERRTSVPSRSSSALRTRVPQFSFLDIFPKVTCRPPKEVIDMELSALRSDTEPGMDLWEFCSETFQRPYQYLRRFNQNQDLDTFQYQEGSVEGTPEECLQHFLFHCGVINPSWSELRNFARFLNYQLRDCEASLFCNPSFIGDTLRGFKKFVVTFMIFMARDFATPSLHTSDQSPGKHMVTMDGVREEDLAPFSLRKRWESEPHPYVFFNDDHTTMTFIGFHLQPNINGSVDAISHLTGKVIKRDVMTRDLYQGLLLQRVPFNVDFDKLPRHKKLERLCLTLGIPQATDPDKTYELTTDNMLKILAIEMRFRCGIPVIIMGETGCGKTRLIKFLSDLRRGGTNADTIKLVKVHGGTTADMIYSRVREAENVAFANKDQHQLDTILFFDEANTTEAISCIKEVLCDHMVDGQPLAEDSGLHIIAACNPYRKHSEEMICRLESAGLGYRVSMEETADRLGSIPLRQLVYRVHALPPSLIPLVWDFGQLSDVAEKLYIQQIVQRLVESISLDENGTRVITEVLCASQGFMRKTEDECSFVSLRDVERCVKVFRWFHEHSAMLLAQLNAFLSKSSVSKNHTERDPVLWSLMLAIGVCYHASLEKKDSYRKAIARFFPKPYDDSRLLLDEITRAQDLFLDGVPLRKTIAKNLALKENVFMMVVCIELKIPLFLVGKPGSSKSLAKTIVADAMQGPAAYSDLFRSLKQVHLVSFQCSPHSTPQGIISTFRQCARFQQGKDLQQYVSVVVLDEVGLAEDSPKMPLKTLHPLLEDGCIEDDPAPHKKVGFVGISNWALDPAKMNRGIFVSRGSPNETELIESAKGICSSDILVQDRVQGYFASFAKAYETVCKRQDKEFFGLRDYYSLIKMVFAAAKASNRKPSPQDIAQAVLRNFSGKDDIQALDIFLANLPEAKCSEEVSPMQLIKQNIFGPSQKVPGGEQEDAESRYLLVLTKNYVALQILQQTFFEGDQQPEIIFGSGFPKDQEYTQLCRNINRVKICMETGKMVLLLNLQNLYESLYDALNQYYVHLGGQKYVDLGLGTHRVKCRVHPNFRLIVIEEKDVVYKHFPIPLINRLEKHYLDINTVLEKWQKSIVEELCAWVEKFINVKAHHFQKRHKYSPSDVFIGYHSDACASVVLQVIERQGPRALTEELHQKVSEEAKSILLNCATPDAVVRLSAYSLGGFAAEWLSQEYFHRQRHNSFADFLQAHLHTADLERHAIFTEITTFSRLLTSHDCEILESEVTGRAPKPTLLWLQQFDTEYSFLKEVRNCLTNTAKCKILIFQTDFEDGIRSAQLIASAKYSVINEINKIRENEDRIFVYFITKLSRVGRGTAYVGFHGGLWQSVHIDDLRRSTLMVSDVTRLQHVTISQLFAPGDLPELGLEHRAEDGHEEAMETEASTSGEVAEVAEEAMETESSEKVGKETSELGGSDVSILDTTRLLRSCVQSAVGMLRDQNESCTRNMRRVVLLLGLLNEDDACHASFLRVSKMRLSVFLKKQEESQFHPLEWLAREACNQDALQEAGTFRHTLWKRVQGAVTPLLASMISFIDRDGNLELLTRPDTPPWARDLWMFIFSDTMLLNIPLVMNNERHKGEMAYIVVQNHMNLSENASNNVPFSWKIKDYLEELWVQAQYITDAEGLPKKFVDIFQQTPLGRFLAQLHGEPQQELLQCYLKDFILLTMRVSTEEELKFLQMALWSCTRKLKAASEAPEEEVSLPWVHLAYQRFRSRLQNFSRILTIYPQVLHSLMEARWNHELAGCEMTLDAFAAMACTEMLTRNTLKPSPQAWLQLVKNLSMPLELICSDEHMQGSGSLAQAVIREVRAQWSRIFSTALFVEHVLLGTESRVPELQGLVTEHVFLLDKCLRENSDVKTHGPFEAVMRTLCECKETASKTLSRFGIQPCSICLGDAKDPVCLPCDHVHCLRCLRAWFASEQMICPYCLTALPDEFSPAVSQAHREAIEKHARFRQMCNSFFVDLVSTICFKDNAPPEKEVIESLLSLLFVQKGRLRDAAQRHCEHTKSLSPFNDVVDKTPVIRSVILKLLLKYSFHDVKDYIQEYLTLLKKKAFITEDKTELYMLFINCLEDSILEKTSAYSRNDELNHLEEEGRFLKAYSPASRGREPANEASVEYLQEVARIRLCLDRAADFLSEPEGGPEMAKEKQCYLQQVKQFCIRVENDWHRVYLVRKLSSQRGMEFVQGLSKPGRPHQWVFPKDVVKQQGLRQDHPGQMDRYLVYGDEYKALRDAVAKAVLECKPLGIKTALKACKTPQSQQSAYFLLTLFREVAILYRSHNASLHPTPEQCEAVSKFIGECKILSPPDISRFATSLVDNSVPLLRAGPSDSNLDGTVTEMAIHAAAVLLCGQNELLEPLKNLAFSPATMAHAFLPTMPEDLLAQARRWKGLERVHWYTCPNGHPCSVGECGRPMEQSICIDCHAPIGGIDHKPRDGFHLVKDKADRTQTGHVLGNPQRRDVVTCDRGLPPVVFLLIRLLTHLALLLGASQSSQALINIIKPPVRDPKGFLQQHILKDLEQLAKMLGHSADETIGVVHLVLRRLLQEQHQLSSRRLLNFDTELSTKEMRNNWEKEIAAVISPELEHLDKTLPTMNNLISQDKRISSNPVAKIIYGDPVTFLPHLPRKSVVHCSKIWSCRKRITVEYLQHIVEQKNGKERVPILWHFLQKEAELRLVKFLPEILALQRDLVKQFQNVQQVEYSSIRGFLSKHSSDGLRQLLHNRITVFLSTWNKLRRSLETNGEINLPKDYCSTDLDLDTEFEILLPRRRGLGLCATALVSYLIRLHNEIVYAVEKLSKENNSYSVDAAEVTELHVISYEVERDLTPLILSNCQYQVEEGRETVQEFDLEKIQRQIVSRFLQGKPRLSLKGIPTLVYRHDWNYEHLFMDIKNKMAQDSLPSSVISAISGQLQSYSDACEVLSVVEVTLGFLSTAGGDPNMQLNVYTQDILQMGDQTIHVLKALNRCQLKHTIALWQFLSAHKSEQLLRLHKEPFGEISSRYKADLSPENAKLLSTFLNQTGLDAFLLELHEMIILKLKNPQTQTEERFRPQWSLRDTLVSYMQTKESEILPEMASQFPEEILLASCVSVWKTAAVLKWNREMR

B1: IpaH1.4 (untagged, recombinant) (enzyme)
chain: MIKSTNIQAIGSGIMHQINNVYSLTPLSLPMELTPSCNEFYLKTWSEWEKNGTPGEQRNIAFNRLKICLQNQEAELNLSELDLKTLPDLPPQITTLEIRKNLLTHLPDLPPMLKVIHAQFNQLESLPALPETLEELNAGDNKIKELPFLPENLTHLRVHNNRLHILPLLPPELKLLVVSGNRLDSIPPFPDKLEGLALANNFIEQLPELPFSMNRAVLMNNNLTTLPESVLRLAQNAFVNVAGNPLSGHTMRTLQQITTGPDYSGPQIFFSMGNSATISAPEHSLADAVTAWFPENKQSDVSQIWHAFEHEEHANTFSAFLDRLSDTVSARNTSGFREQVAAWLEKLSASAELRQQSFAVAADATESCEDRVALTWNNLRKTLLVHQASEGLFDNDTGALLSLGREMFRLEILEDIARDKVRTLHFVDEIEVYLAFQTMLAEKLQLSTAVKEMRFYGVSGVTANDLRTAEAMVRSREENEFTDWFSLWGPWHAVLKRTEADRWAQAEEQKYEMLENEYSQRVADRLKASGLSGDADAEREAGAQVMRETEQQIYRQLTDEVLALRLSENGSNHIA
notes: IpaH1.4, secreted E3 ubiquitin ligase effector of Shigella flexneri; open reading frame cloned into pETM-30; only the LRR domain is resolved in the map; also called WT IpaH1.4; not shown: 6xHis, N-terminal, cleaved; GST, N-terminal, cleaved
On to B1, for which the binding result is “binds”.
